Sequences and labels used below:
B1: TPR 5TU (parent)
chain: GGAUCUUCUCGAUCUAACAAAAAAGACAAAUCUGCCACAAAGCUUGAGAGCAUCUUCGGAUGCAGAGGCGGCAGCCUUCGGUGGCGCGAUAGCGCCAACGUUCUCAACUAUGACACGCAAAACGCGUGCUCCGUUGAAUGGAGUUUAUCAUG

This sample holds only a part of the variants without activity.

Consider 83 variants from the RNAGym collection of RNA variant scans (doi:10.1073/pnas.2313332121).

The variants in the data set derive from B1. In words: polymerase ribozyme fitness, log enrichment relative to wild type (log ratio); higher = more active; in vitro selection for triplet polymerase activity. In a few lines: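 Genotype fitness is the logarithm of its enrichment divided by wild-type enrichment, using inverse-variance-weighted averages of replicates. That logarithm is base 2. Enrichment was measured by Illumina sequencing of input and output libraries from one triplicate in vitro selection round, with frozen incubation at −7 °C, on PCR-built, transcribed mutant libraries of each subunit of a heterodimeric triplet polymerase ribozyme, retaining genotypes with ≥10 input reads and ≥1 read per output.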
Consider C85A C129U, for which the “polymerase ribozyme fitness (log ratio)” value is -0.397. The same measure for G88U A121C: at most -4.2; for G84U A89U G126U: -1.58.

On to C87U U127A, for which the “polymerase ribozyme fitness (log ratio)” value was -3.2. To C85U G94C G143A belongs -1.78. To G84U G133A belongs at most -4.2; to C85U A113G, -1.86. The same measure for C87A U127G: at most -4.2. As to G86A U90G, the “polymerase ribozyme fitness (log ratio)” value was at most -4.2. To C87A C103U C108A A110C C132A belongs at most -4.2. To G84A G86U C95A C99U U101A C123G belongs at most -4.2.

Consider G84A G88A U148G, for which the “polymerase ribozyme fitness (log ratio)” value was at most -4.2.

As to G84A G140A, the “polymerase ribozyme fitness (log ratio)” value was -3.27. The same measure for G84A G140U: -2.64; for G83U C123A: -0.709; for C87A C103A C114U: at most -4.2. As for G88U G124A G128U U135C, the “polymerase ribozyme fitness (log ratio)” value is at most -4.2. For the variant C85U A150C, the “polymerase ribozyme fitness (log ratio)” value is -2.26. To C85U A150G belongs -1.76. To G84A A98G belongs -2.7; to C85G C125A U144A, -3.57. The same measure for C87A C125U: -4.14.

For the variant C85G G141A, the “polymerase ribozyme fitness (log ratio)” value is -2.85. The same measure for C85A C95A: -0.893; for G84U C103U: -1.74.

C85G C118A A142U: the “polymerase ribozyme fitness (log ratio)” value was -2.93. The same measure for C85A C118U: -0.342; for C85A C118G: -0.907. Turning to G88U C105U, the “polymerase ribozyme fitness (log ratio)” value was -3.83. The same measure for G84A A97U U134A: -3.23; for C85A A119U: -2.98; for C85G U102C G141U: -3.43. On to G86A U139G, for which the “polymerase ribozyme fitness (log ratio)” value is -1.36.

For the variant G84C U134G, the “polymerase ribozyme fitness (log ratio)” value is at most -4.2. To C87U C123U G126U belongs 0.848; to G84A G136U, -2.81; to G88U C95U A121U A122G G124A, at most -4.2. To G86C A89U belongs -2.94. For the variant G84U G117U A121G, the “polymerase ribozyme fitness (log ratio)” value was -1.75.

C85G C131G G152U: the “polymerase ribozyme fitness (log ratio)” value was at most -4.2. The same measure for G83U A121U: -0.341; for C85A A115C: -1.64; for G84U: -1.91. The same measure for G84A: -0.547; for G84C: -1.76; for G86U C118U C125U: -4.01.

Take C87G A107G: the “polymerase ribozyme fitness (log ratio)” value was at most -4.2. The same measure for G84A G128U: -3.84. The same measure for C87G G141U: -3.61; for C87U G141A: -0.85; for C87U G141C: -1.72. To C85G C132G belongs at most -4.2; to C87G C93A, -3.63.

As for G86U C99G, the “polymerase ribozyme fitness (log ratio)” value was -3.67. The same measure for C85G U130G: at most -4.2; for G83U C95U C118U U144A: -3.4; for G84A A89U G136U: -2.91.

On to C85G C114A A150C, for which the “polymerase ribozyme fitness (log ratio)” value is at most -4.2. The same measure for G86A C103U: -1.01; for C85U G140U: -2.51; for G86A A89G C103G A115G G126C: at most -4.2. To G86A U104G belongs -2.29. The same measure for C85G G133C U135C: at most -4.2. With C87U C131A G140A, the “polymerase ribozyme fitness (log ratio)” value is -3.61.

C85U A98U: the “polymerase ribozyme fitness (log ratio)” value is -1.49. To C85U G88A U151G belongs at most -4.2; to G86A U148C, -1.5; to G86C G117A, -1.84. In the case of C87U C105U, the “polymerase ribozyme fitness (log ratio)” value is -2.21.

Regarding G88A A147C, the “polymerase ribozyme fitness (log ratio)” value was -4.01.

G84U U104G A115C: the “polymerase ribozyme fitness (log ratio)” value was -3.36.

With C85U A89U A106G C125G, the “polymerase ribozyme fitness (log ratio)” value is -1.15. C85U C108U: the “polymerase ribozyme fitness (log ratio)” value is -3.1.

Consider C87A G117C U146C, for which the “polymerase ribozyme fitness (log ratio)” value is at most -4.2. Consider G84C G94A, for which the “polymerase ribozyme fitness (log ratio)” value was -4.07. To C85A C87U belongs at most -4.2. To C85U G126A A142G belongs -0.307; to G84A A91U, at most -4.2. Regarding C85G G92C A121C C132U U146A, the “polymerase ribozyme fitness (log ratio)” value is at most -4.2. To C87A U146G belongs at most -4.2; to C85U C118U, -0.662. The same measure for C87G U90C: -4.07. To G86A U101G belongs -0.828.
